What is called IC50 is the concentration that gives 50% inhibition. Read a high IC50 as a need for much substance.

Our source for the IC50 values is patent US20140087995A1 (published 2014).

Numbered stars: 1 amine (or outer) side, 2 acyl side, 3 side chain; on linkers, the order of the positions; unused ones are H or OH. Bridge positions count the residues as written; N and C are the ends. Side chains are listed from the residue outwards. Ends that are not written are not given here. * marks the point of attachment. C20 diacid = O=C(O)CCCCCCCCCCCCCCCCCCC(=O)*; γGlu = O=C(O)[C@H](CCC(=O)[*:2])N[*:1]; AEEA = NCCOCCOCC(=O)O

T1: human amylin receptor (human, UniProt P30988 25-474; O60896 24-148, limits assumed)
T1 construct: whole, on cells; Calcitonin receptor plus RAMP-3 gives the amylin 3(a) receptor; membranes of Amylin 3(a)/CRE-luc cells were used; also called hAmylin-R; hAmylinR
T1 sequence (looked up) 1: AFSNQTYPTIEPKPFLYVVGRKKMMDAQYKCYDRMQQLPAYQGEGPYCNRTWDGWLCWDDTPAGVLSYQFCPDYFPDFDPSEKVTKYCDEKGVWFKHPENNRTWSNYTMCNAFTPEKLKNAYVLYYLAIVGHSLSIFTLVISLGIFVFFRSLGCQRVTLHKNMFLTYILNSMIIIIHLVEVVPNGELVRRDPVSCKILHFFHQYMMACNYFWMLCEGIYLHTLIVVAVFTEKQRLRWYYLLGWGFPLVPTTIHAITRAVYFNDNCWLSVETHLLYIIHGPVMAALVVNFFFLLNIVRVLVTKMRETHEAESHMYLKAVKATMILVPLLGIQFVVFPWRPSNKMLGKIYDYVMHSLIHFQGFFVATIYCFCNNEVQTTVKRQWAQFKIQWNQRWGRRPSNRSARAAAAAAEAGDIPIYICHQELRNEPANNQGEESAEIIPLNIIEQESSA
T1 sequence (looked up) 2: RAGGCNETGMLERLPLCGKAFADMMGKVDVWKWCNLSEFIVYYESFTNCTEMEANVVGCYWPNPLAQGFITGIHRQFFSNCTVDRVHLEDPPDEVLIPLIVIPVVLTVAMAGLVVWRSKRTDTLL

B1: N^ε1-[2-[2-[2-[[(4S)-4-carboxy-4-(19-carboxynonadecanoylamino)butanoyl]amino]ethoxy]ethoxy]acetyl]-[His14,Arg17,Pro21,Pro27,Pro31]-h-amylin (peptide)
peptide: K([AEEA-γGlu-C20 diacid])CNTATCATQRLAHFLRHSSPNFGAIPSSTPVGSNTY-NH2
modifications: disulfide 2-7; N-terminus assumed
SMILES: CC[C@H](C)[C@H](NC(=O)[C@H](C)NC(=O)CNC(=O)[C@H](Cc1ccccc1)NC(=O)[C@H](CC(N)=O)NC(=O)[C@@H]1CCCN1C(=O)[C@H](CO)NC(=O)[C@H](CO)NC(=O)[C@H](Cc1c[nH]cn1)NC(=O)[C@H](CCCNC(=N)N)NC(=O)[C@H](CC(C)C)NC(=O)[C@H](Cc1ccccc1)NC(=O)[C@H](Cc1c[nH]cn1)NC(=O)[C@H](C)NC(=O)[C@H](CC(C)C)NC(=O)[C@H](CCCNC(=N)N)NC(=O)[C@H](CCC(N)=O)NC(=O)[C@@H](NC(=O)[C@H](C)NC(=O)[C@@H]1CSSC[C@H](NC(=O)[C@@H](N)CCCCNC(=O)COCCOCCNC(=O)CC[C@H](NC(=O)CCCCCCCCCCCCCCCCCCC(=O)O)C(=O)O)C(=O)N[C@@H](CC(N)=O)C(=O)N[C@@H]([C@@H](C)O)C(=O)N[C@@H](C)C(=O)N[C@@H]([C@@H](C)O)C(=O)N1)[C@@H](C)O)C(=O)N1CCC[C@H]1C(=O)N[C@@H](CO)C(=O)N[C@@H](CO)C(=O)N[C@H](C(=O)N1CCC[C@H]1C(=O)N[C@H](C(=O)NCC(=O)N[C@@H](CO)C(=O)N[C@@H](CC(N)=O)C(=O)N[C@H](C(=O)N[C@@H](Cc1ccc(O)cc1)C(N)=O)[C@@H](C)O)C(C)C)[C@@H](C)O
notes: also called 14H, 17R, 21P, 27P, 31P
B2: N^ε1-[2-[2-[2-[[(4S)-4-carboxy-4-(19-carboxynonadecanoylamino)butanoyl]amino]ethoxy]ethoxy]acetyl]-[Lys14,Arg17,Pro21,Pro27,Pro31]-h-amylin (peptide)
peptide: K([AEEA-γGlu-C20 diacid])CNTATCATQRLAKFLRHSSPNFGAIPSSTPVGSNTY-NH2
modifications: disulfide 2-7; N-terminus assumed
SMILES: CC[C@H](C)[C@H](NC(=O)[C@H](C)NC(=O)CNC(=O)[C@H](Cc1ccccc1)NC(=O)[C@H](CC(N)=O)NC(=O)[C@@H]1CCCN1C(=O)[C@H](CO)NC(=O)[C@H](CO)NC(=O)[C@H](Cc1c[nH]cn1)NC(=O)[C@H](CCCNC(=N)N)NC(=O)[C@H](CC(C)C)NC(=O)[C@H](Cc1ccccc1)NC(=O)[C@H](CCCCN)NC(=O)[C@H](C)NC(=O)[C@H](CC(C)C)NC(=O)[C@H](CCCNC(=N)N)NC(=O)[C@H](CCC(N)=O)NC(=O)[C@@H](NC(=O)[C@H](C)NC(=O)[C@@H]1CSSC[C@H](NC(=O)[C@@H](N)CCCCNC(=O)COCCOCCNC(=O)CC[C@H](NC(=O)CCCCCCCCCCCCCCCCCCC(=O)O)C(=O)O)C(=O)N[C@@H](CC(N)=O)C(=O)N[C@@H]([C@@H](C)O)C(=O)N[C@@H](C)C(=O)N[C@@H]([C@@H](C)O)C(=O)N1)[C@@H](C)O)C(=O)N1CCC[C@H]1C(=O)N[C@@H](CO)C(=O)N[C@@H](CO)C(=O)N[C@H](C(=O)N1CCC[C@H]1C(=O)N[C@H](C(=O)NCC(=O)N[C@@H](CO)C(=O)N[C@@H](CC(N)=O)C(=O)N[C@H](C(=O)N[C@@H](Cc1ccc(O)cc1)C(N)=O)[C@@H](C)O)C(C)C)[C@@H](C)O
notes: also called 14K, 17R, 21P, 27P, 31P
B3: N^ε1-[2-[2-[2-[[(4S)-4-carboxy-4-(19-carboxynonadecanoylamino)butanoyl]amino]ethoxy]ethoxy]acetyl]-[His14,Arg17,Pro21,Pro27,Pro34]-h-amylin (peptide)
peptide: K([AEEA-γGlu-C20 diacid])CNTATCATQRLAHFLRHSSPNFGAIPSSTNVGPNTY-NH2
modifications: disulfide 2-7; N-terminus assumed
SMILES: CC[C@H](C)[C@H](NC(=O)[C@H](C)NC(=O)CNC(=O)[C@H](Cc1ccccc1)NC(=O)[C@H](CC(N)=O)NC(=O)[C@@H]1CCCN1C(=O)[C@H](CO)NC(=O)[C@H](CO)NC(=O)[C@H](Cc1c[nH]cn1)NC(=O)[C@H](CCCNC(=N)N)NC(=O)[C@H](CC(C)C)NC(=O)[C@H](Cc1ccccc1)NC(=O)[C@H](Cc1c[nH]cn1)NC(=O)[C@H](C)NC(=O)[C@H](CC(C)C)NC(=O)[C@H](CCCNC(=N)N)NC(=O)[C@H](CCC(N)=O)NC(=O)[C@@H](NC(=O)[C@H](C)NC(=O)[C@@H]1CSSC[C@H](NC(=O)[C@@H](N)CCCCNC(=O)COCCOCCNC(=O)CC[C@H](NC(=O)CCCCCCCCCCCCCCCCCCC(=O)O)C(=O)O)C(=O)N[C@@H](CC(N)=O)C(=O)N[C@@H]([C@@H](C)O)C(=O)N[C@@H](C)C(=O)N[C@@H]([C@@H](C)O)C(=O)N1)[C@@H](C)O)C(=O)N1CCC[C@H]1C(=O)N[C@@H](CO)C(=O)N[C@@H](CO)C(=O)N[C@H](C(=O)N[C@@H](CC(N)=O)C(=O)N[C@H](C(=O)NCC(=O)N1CCC[C@H]1C(=O)N[C@@H](CC(N)=O)C(=O)N[C@H](C(=O)N[C@@H](Cc1ccc(O)cc1)C(N)=O)[C@@H](C)O)C(C)C)[C@@H](C)O
notes: also called 14H, 17R, 21P, 27P, 34P
B4: N^ε1-[2-[2-[2-[[(4S)-4-carboxy-4-(19-carboxynonadecanoylamino)butanoyl]amino]ethoxy]ethoxy]acetyl]-[His14,Arg17,Pro21,Pro27]-h-amylin (peptide)
peptide: K([AEEA-γGlu-C20 diacid])CNTATCATQRLAHFLRHSSPNFGAIPSSTNVGSNTY-NH2
modifications: disulfide 2-7; N-terminus assumed
SMILES: CC[C@H](C)[C@H](NC(=O)[C@H](C)NC(=O)CNC(=O)[C@H](Cc1ccccc1)NC(=O)[C@H](CC(N)=O)NC(=O)[C@@H]1CCCN1C(=O)[C@H](CO)NC(=O)[C@H](CO)NC(=O)[C@H](Cc1c[nH]cn1)NC(=O)[C@H](CCCNC(=N)N)NC(=O)[C@H](CC(C)C)NC(=O)[C@H](Cc1ccccc1)NC(=O)[C@H](Cc1c[nH]cn1)NC(=O)[C@H](C)NC(=O)[C@H](CC(C)C)NC(=O)[C@H](CCCNC(=N)N)NC(=O)[C@H](CCC(N)=O)NC(=O)[C@@H](NC(=O)[C@H](C)NC(=O)[C@@H]1CSSC[C@H](NC(=O)[C@@H](N)CCCCNC(=O)COCCOCCNC(=O)CC[C@H](NC(=O)CCCCCCCCCCCCCCCCCCC(=O)O)C(=O)O)C(=O)N[C@@H](CC(N)=O)C(=O)N[C@@H]([C@@H](C)O)C(=O)N[C@@H](C)C(=O)N[C@@H]([C@@H](C)O)C(=O)N1)[C@@H](C)O)C(=O)N1CCC[C@H]1C(=O)N[C@@H](CO)C(=O)N[C@@H](CO)C(=O)N[C@H](C(=O)N[C@@H](CC(N)=O)C(=O)N[C@H](C(=O)NCC(=O)N[C@@H](CO)C(=O)N[C@@H](CC(N)=O)C(=O)N[C@H](C(=O)N[C@@H](Cc1ccc(O)cc1)C(N)=O)[C@@H](C)O)C(C)C)[C@@H](C)O
notes: also called 14H, 17R, 21P, 27P
B5: N^ε1-[2-[2-[2-[[(4S)-4-carboxy-4-(19-carboxynonadecanoylamino)butanoyl]amino]ethoxy]ethoxy]acetyl]-[Thr14,Arg17,Pro21,Pro27,Pro31]-h-amylin (peptide)
peptide: K([AEEA-γGlu-C20 diacid])CNTATCATQRLATFLRHSSPNFGAIPSSTPVGSNTY-NH2
modifications: disulfide 2-7; N-terminus assumed
SMILES: CC[C@H](C)[C@H](NC(=O)[C@H](C)NC(=O)CNC(=O)[C@H](Cc1ccccc1)NC(=O)[C@H](CC(N)=O)NC(=O)[C@@H]1CCCN1C(=O)[C@H](CO)NC(=O)[C@H](CO)NC(=O)[C@H](Cc1c[nH]cn1)NC(=O)[C@H](CCCNC(=N)N)NC(=O)[C@H](CC(C)C)NC(=O)[C@H](Cc1ccccc1)NC(=O)[C@@H](NC(=O)[C@H](C)NC(=O)[C@H](CC(C)C)NC(=O)[C@H](CCCNC(=N)N)NC(=O)[C@H](CCC(N)=O)NC(=O)[C@@H](NC(=O)[C@H](C)NC(=O)[C@@H]1CSSC[C@H](NC(=O)[C@@H](N)CCCCNC(=O)COCCOCCNC(=O)CC[C@H](NC(=O)CCCCCCCCCCCCCCCCCCC(=O)O)C(=O)O)C(=O)N[C@@H](CC(N)=O)C(=O)N[C@@H]([C@@H](C)O)C(=O)N[C@@H](C)C(=O)N[C@@H]([C@@H](C)O)C(=O)N1)[C@@H](C)O)[C@@H](C)O)C(=O)N1CCC[C@H]1C(=O)N[C@@H](CO)C(=O)N[C@@H](CO)C(=O)N[C@H](C(=O)N1CCC[C@H]1C(=O)N[C@H](C(=O)NCC(=O)N[C@@H](CO)C(=O)N[C@@H](CC(N)=O)C(=O)N[C@H](C(=O)N[C@@H](Cc1ccc(O)cc1)C(N)=O)[C@@H](C)O)C(C)C)[C@@H](C)O
notes: also called 14T, 17R, 21P, 27P, 31P
B6: N^ε1-[2-[2-[2-[[(4S)-4-carboxy-4-(19-carboxynonadecanoylamino)butanoyl]amino]ethoxy]ethoxy]acetyl]-[Ser14,Arg17,Pro21,Pro27,Pro31]-h-amylin (peptide)
peptide: K([AEEA-γGlu-C20 diacid])CNTATCATQRLASFLRHSSPNFGAIPSSTPVGSNTY-NH2
modifications: disulfide 2-7; N-terminus assumed
SMILES: CC[C@H](C)[C@H](NC(=O)[C@H](C)NC(=O)CNC(=O)[C@H](Cc1ccccc1)NC(=O)[C@H](CC(N)=O)NC(=O)[C@@H]1CCCN1C(=O)[C@H](CO)NC(=O)[C@H](CO)NC(=O)[C@H](Cc1c[nH]cn1)NC(=O)[C@H](CCCNC(=N)N)NC(=O)[C@H](CC(C)C)NC(=O)[C@H](Cc1ccccc1)NC(=O)[C@H](CO)NC(=O)[C@H](C)NC(=O)[C@H](CC(C)C)NC(=O)[C@H](CCCNC(=N)N)NC(=O)[C@H](CCC(N)=O)NC(=O)[C@@H](NC(=O)[C@H](C)NC(=O)[C@@H]1CSSC[C@H](NC(=O)[C@@H](N)CCCCNC(=O)COCCOCCNC(=O)CC[C@H](NC(=O)CCCCCCCCCCCCCCCCCCC(=O)O)C(=O)O)C(=O)N[C@@H](CC(N)=O)C(=O)N[C@@H]([C@@H](C)O)C(=O)N[C@@H](C)C(=O)N[C@@H]([C@@H](C)O)C(=O)N1)[C@@H](C)O)C(=O)N1CCC[C@H]1C(=O)N[C@@H](CO)C(=O)N[C@@H](CO)C(=O)N[C@H](C(=O)N1CCC[C@H]1C(=O)N[C@H](C(=O)NCC(=O)N[C@@H](CO)C(=O)N[C@@H](CC(N)=O)C(=O)N[C@H](C(=O)N[C@@H](Cc1ccc(O)cc1)C(N)=O)[C@@H](C)O)C(C)C)[C@@H](C)O
notes: also called 14S, 17R, 21P, 27P, 31P

For the experiment, the target named is T1, human amylin receptor. Briefly: SPA competition binding, displacement of 125I-rat amylin from membranes with human amylin 3(a) receptor (Assay V). An outline of the steps:
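Membranes from BHK Amylin 3(a)/CRE-luc cells (35 ng/μL final) were mixed with SPA beads and test compounds in 50 mM Hepes pH 7.4 with 1 mM CaCl2, 5 mM MgCl₂, 0.1% OA and 0.02% Tween20. Incubation ran 120 min at 25° C with shaking; IC₅₀ came from one-site competition fitting.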
(Loss of bound radioactivity is the signal in a displacement assay; it reports binding, not function.)
B1 returned a half-maximal inhibitory concentration (IC50) of 0.122 nM.
The same measure for B2: 0.791 nM; for B3: 0.088 nM; for B4: 0.133 nM.
The same measure for B5: 0.666 nM.
The same measure for B6: 0.104 nM.
